Earlier results in paper PMC9638026.

Target: TIRR (Homo sapiens) (UniProt Q9BRJ7)
Settings: cited from earlier work

Chain of 53BP1 (Q12888 whole entry): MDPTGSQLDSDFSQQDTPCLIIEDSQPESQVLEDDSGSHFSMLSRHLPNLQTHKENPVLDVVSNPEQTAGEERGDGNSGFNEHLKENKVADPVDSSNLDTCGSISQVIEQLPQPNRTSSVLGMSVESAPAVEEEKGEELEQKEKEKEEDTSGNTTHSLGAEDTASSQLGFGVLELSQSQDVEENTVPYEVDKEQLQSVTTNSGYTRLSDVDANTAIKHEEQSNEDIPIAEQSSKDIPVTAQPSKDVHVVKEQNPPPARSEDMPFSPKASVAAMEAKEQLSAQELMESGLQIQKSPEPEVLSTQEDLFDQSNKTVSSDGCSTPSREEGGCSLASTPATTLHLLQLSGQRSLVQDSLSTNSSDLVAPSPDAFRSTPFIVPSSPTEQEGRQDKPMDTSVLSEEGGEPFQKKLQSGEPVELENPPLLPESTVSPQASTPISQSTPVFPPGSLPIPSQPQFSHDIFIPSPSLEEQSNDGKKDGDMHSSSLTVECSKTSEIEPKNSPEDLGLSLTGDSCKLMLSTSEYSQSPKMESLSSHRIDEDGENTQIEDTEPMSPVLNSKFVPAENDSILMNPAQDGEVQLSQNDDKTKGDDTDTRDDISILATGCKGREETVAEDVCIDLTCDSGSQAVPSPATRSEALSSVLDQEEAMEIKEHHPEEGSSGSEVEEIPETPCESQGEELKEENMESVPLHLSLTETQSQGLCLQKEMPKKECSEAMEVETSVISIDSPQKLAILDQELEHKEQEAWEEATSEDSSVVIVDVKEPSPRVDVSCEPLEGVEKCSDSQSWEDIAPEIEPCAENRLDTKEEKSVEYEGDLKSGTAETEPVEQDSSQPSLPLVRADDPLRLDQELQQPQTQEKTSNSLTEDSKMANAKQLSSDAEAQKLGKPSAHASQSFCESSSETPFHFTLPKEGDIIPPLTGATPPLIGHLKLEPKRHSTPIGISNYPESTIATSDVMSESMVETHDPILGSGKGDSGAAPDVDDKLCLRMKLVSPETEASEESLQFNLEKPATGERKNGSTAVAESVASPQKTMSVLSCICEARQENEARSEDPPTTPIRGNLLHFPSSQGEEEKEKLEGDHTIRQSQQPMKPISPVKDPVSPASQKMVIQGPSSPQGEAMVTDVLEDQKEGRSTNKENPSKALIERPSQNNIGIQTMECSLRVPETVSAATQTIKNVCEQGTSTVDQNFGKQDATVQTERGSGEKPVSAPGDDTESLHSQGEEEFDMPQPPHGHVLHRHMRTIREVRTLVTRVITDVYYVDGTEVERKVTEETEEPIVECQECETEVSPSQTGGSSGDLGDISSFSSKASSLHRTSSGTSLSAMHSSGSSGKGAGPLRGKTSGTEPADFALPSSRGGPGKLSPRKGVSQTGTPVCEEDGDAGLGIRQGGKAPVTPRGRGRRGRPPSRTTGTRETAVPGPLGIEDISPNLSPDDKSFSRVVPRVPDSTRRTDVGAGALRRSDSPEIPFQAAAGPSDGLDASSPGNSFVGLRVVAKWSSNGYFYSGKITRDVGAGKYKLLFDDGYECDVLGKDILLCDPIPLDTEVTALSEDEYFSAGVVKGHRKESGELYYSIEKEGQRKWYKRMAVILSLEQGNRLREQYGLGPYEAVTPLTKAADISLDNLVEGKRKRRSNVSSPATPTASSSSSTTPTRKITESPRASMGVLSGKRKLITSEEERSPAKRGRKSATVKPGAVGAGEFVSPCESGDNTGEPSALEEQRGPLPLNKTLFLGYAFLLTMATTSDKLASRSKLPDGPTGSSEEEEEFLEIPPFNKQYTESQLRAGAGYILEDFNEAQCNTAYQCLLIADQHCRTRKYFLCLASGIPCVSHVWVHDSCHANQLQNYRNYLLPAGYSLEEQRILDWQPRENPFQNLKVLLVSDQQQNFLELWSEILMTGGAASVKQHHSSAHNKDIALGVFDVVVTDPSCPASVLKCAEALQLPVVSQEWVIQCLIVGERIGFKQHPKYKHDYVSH
Chain of TIRR (Homo sapiens) (Q9BRJ7 whole entry): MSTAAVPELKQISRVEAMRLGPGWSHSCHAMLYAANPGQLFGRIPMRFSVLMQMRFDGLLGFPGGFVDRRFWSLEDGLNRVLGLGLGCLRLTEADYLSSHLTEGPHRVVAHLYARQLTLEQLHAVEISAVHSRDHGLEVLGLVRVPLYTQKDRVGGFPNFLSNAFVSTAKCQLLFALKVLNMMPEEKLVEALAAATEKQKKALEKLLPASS

Substance: 53BP1 (from UniProt Q12888)
- Kd: 1000 nM
